We go through seven substances from paper PMC8940645.

A short description of data set [1]: kifunensine 5 μM time course, R4-ICD immunoblot. The settings on record: glycan changed form; control: 0 h kifunensine.
The nature of data set [2]: confocal immunofluorescence, giantin co-staining. The note with it: glycan lost; control: wild type.
A short description of data set [3]: NGI-1 overnight, R4-ICD immunoblot. The note with it: glycan lost; control: vehicle. (A western blot detects proteins with antibodies after separation by electrophoresis.)
The nature of data set [4]: active lysate incubation, R4-ICD/FGFR4 immunoblot ratio. The note with it: glycan lost; control: wild type.

Consider FGFR4: kifunensine 8 h, for which, in data set [1], the “other: proteolytic processing” value is “increases”. For the substance FGFR4: N322Q, in data set [2], the localisation_or_trafficking result was “no change”. For FGFR4: NGI-1 100 μM, the “other: proteolytic processing” value in data set [3] is given as “no change”.

For FGFR4: N311Q, in data set [2], the localisation_or_trafficking result is recorded as “no change”. Besides, the “other: proteolytic processing, other: relative scale 0 to 3+” value in data set [4] is given as “decreases, ++ vs +++”. On to FGFR4: N290Q, for which the localisation_or_trafficking entry in data set [2] is “no change”. Also, the “other: proteolytic processing, other: relative scale 0 to 3+” value in data set [4] is “abolishes, 0 vs +++”.

As for FGFR4: kifunensine 16 h, the “other: proteolytic processing” value in data set [1] is on record as “no change”.

As to FGFR4: NGI-1 10 μM, the “other: proteolytic processing” value in data set [3] is recorded as “increases”.
